Measurements reported in paper PMC9714666 (Frontiers in Immunology, 2022).

Key:
[1] = target: T1, SARS-CoV-2 Omicron (B.1.1.529) RBD, biotinylated (SARS-CoV-2 Omicron B.1.1.529 (BA.1), strain, biotinylated); experiment: BLI; conditions: both partners purified
T1 construct: source: bought: ACRObiosystems

[2] = target: T2, SARS-CoV-2 Omicron BA.5 RBD, biotinylated (SARS-CoV-2 Omicron BA.5, strain, biotinylated); experiment: BLI; conditions: both partners purified
T2 construct: source: bought: ACRObiosystems

B1: D27LEY (antibody, V domains shown)
VH: QVQLQQSGAEVKKPGSSVKVSCKASGGTFGNWSISWVRQAPGQGLEWMGGIAPGRGEATYAQKFQGRVTITTDESTSTAYMELSSLRSEDTAVYYCARETWYTSGGMDVWGQGTTVTVSS
VL: SYELTQPPSVSVAPGKTARITCGGNNIGRKSVHWYQQKPGQAPVLVVYDDSDRPSGIPERFSGSNSGNTATLTISRVEAGDEADYYCQVYDLWSSDYVFGTGTKVEIK
With B1 as the binder, how does the Kd [1] read?
The Kd was 0.34 nM.

And the Kd [2]?
Its Kd is 0.37 nM.
